In patent US20090233266A1:

Biological target: C-terminal domain of the NS2 protein of hepatitis C virus, amino acids 94 to 217 of NS2 from HCV genotype 1a strain H77 (residues 903 to 1026 of the HCV polyprotein) (hepatitis C virus genotype 1a strain H77) (UniProt P27958)
Assay: X-ray crystal structure

## C-terminal domain of the NS2 protein of hepatitis C virus, amino acids 94 to 217 of NS2 from HCV genotype 1a strain H77 (residues 903 to 1026 of the HCV polyprotein) (from UniProt P27958) (enzyme)
  total buried surface area: 1100 Å^2
